This is an account of results in patent US20210230244A1 (NATIONAL INSTITUTE OF IMMUNOLOGY, published 2021).

This test addresses T1, Abeta 1-42 peptide.
T1 construct: Used at 100 micromolar in PBS pH 7.4 at 37 C, where it aggregates into oligomers and fibrils, so it was not a defined monomer in the assays; also called Abeta42; Abeta 42
The experiment in a line: Glu-OC (25 ng-0.1 ng) incubated with 100 micromolar Abeta42; A11 reactivity and AFM.

Bridge positions count the residues as written; N and C are the ends. Ends that are not written are not given here.

T1 sequence (peptide, as listed by the source): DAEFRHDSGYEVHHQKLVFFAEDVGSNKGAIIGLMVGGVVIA

B1: undercarboxylated osteocalcin (peptide)
peptide: YLYQWLGAPVPYPDPLEPRREVCELNPDCDELADHIGFQEAYRRFYGPV
modifications: disulfide 23-29
notes: also called Glu-OC; uncarboxylated osteocalcin
For B1, the binding result is reported as “binds”.
